Data from patent US20230183354A1 (IMMIOS HOLDING B V, published 2023).

T1: murine CD103 (mouse, UniProt Q60677 20-1167)
T1 construct: whole, on cells; also called murine CD103+ T cells; mouse CD103
T1 sequence (looked up): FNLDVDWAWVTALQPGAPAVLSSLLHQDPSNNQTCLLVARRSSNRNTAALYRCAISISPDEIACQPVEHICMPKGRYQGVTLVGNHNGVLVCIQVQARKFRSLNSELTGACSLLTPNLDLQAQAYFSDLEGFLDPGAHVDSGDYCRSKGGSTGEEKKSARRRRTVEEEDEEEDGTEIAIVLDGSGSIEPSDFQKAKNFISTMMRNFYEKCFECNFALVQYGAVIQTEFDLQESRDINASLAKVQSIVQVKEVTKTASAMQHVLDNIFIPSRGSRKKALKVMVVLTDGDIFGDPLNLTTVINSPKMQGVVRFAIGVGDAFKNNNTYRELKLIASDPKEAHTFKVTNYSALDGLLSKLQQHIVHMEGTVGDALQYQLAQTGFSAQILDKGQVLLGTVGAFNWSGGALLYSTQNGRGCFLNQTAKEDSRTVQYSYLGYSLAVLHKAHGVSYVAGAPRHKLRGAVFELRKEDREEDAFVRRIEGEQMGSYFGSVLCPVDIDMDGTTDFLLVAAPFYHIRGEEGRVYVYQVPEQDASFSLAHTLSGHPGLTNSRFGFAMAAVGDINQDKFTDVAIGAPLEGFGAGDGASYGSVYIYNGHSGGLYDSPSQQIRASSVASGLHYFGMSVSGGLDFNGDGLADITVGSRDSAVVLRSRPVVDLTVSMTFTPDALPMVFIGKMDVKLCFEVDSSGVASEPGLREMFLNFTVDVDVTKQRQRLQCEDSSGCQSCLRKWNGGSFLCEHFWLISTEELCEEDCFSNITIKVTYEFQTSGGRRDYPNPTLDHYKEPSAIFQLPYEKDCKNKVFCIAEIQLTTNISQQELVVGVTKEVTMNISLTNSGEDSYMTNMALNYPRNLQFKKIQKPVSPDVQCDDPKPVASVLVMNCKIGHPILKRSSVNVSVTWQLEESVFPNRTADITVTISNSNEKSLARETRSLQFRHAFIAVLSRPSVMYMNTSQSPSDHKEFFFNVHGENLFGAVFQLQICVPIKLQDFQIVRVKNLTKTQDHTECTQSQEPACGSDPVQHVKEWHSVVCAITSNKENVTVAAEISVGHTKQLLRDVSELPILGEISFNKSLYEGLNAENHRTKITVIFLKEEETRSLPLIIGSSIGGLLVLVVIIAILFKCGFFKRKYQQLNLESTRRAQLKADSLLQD


Key:
[1] = target: T2, human CD103 (integrin Alpha-E) / human integrin Beta-7 heterodimer on cells (human, UniProt P38570 19-1179; P26010 20-798); experiment: flow cytometry competition on CD103+CD8+ T cells; pre-incubation with unlabeled 01A; table n=2
T2 construct: the assay field tells which cells; also called hCD103/hBeta7; CHO.K1-hCD103/hBeta7
Experimental: (§1) Percentage binding of fluorescently labeled mAbs was determined using flow cytometry. Maximum binding was set at 100%.
(§2) Percentage binding of fluorescently labeled mAbs was determined using flow cytometry. Maximum binding was set at 100%

[2] = target: T2, human CD103 (integrin Alpha-E) / human …; experiment: flow cytometry competition on CD103+CD8+ T cells; pre-incubation with unlabeled IgG (f2); table n=2
Experimental: as §1, §2

murine CD103 = target: T1, murine CD103; experiment: flow cytometry on mouse spleen and thymus cells
Experimental: Additional aliquots were stained with relevant isotype controls or as fluorescence minus one controls (“FMO” controls are cells stained with all the fluorophores minus one fluorophore; the relevant isotype controls contain either a directly labeled unspecific isotype antibody or an unspecific isotype antibody combined with secondary detection reagent). Percentage binding of fluorescently labeled mAbs was determined using flow cytometry. Maximum binding was set at 100%. […] Data analysis was performed with FlowJo v10 (Tree Star) and surface receptor levels were expressed as mean fluorescent intensity (MFI).

[3] = target: T2, human CD103 (integrin Alpha-E) / human …; experiment: cell-based ELISA on CHO.K1-hCD103/hBeta7 cells, relative absorbance, upper panel
Experimental: (§3) Wells were washed with PBS and incubated with Rabbit anti-Mouse/IgG-HRP (1:4000, Dako) or Fab specific Goat anti-Human/IgG-HRP (1:4000; Sigma Aldrich) for 1 h at 37° C. Next, wells were washed with PBS and TMB substrate (KPL) was added. The color reaction was stopped by adding 1M HCl solution and the absorbance was measured by a microplate reader (Thermo Scientific).

[4] = target: T3, recombinant hCD103/hBeta7 Fc-protein (Acro-Biosystems) (human, UniProt P38570 19-1124; P26010 20-723, limits assumed); experiment: ELISA on coated recombinant human CD103/beta7 Fc-protein, OD450-620, lower right panel titled rhCD103/beta7
T3 construct: Bought protein with no catalog number and no construct limits printed; also called recombinant human CD103/Beta7; recombinant hCD103/beta7; not shown: fusion part of the bought 'Fc-protein'
Experimental: Protein coated 96-well plates were blocked in protein-free blocking buffer (Pierce) for 1.5 hour at 37° C. Plates were washed and incubated for 1 hour at RT with mAb/Fab in 0.1% Tween-20 in PBS. Next, plates were washed with PBS-T and incubated for 1 hour at RT with goat-anti-mouse IgG-HRP conjugate (Southern Biotech) for mAbs, and goat-anti-human Fab-HRP conjugate (Jackson Immuno Research) for the Fab fragments in 0.1% Tween-20 in PBS. […] Reactions were stopped with 0.5 M H2SO4 and absorbances were read at 450 and 610 nm.

[5] = target: T2, human CD103 (integrin Alpha-E) / human …; experiment: cell-based ELISA on CHO.K1-hCD103/hBeta7 cells, Df-conjugated mAb, relative absorbance, upper panel
Experimental: as §3

[6] = target: T2, human CD103 (integrin Alpha-E) / human …; experiment: binding of 89Zr-labeled mAb to CHO.K1-hCD103/hBeta7 cells, bound activity in counts

T2 sequence (P38570 19-1179 limits assumed, chain 1 of 2): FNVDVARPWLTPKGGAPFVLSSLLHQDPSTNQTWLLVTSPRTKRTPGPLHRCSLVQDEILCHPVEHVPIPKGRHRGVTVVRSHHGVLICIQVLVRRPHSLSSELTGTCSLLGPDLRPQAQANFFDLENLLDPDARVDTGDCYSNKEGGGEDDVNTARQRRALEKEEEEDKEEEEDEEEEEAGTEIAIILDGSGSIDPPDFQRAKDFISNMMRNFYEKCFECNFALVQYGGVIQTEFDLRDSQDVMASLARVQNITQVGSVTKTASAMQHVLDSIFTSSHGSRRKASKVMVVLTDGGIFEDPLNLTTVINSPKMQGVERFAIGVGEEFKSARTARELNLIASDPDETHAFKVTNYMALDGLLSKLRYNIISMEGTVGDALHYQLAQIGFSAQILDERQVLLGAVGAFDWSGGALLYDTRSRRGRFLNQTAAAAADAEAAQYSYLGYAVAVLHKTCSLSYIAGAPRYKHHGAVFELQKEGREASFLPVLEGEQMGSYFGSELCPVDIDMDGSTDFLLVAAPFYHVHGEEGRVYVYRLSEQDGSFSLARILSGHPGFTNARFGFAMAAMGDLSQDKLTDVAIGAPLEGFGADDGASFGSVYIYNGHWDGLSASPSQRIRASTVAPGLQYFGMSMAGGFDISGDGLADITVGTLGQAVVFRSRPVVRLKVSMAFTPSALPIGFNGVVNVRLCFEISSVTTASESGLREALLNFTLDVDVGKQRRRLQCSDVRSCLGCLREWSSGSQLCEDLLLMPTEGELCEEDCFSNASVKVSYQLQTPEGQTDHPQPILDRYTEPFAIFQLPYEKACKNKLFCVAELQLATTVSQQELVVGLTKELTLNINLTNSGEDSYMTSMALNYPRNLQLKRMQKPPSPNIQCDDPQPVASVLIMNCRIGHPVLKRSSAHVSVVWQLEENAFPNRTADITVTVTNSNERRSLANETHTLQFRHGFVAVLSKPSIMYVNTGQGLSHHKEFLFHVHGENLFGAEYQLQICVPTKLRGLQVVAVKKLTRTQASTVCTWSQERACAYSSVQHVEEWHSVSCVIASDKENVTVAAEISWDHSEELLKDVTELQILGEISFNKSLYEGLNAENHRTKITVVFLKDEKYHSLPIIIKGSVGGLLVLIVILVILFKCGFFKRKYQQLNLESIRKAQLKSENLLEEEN
T2 sequence (P26010 20-798 limits assumed, chain 2 of 2): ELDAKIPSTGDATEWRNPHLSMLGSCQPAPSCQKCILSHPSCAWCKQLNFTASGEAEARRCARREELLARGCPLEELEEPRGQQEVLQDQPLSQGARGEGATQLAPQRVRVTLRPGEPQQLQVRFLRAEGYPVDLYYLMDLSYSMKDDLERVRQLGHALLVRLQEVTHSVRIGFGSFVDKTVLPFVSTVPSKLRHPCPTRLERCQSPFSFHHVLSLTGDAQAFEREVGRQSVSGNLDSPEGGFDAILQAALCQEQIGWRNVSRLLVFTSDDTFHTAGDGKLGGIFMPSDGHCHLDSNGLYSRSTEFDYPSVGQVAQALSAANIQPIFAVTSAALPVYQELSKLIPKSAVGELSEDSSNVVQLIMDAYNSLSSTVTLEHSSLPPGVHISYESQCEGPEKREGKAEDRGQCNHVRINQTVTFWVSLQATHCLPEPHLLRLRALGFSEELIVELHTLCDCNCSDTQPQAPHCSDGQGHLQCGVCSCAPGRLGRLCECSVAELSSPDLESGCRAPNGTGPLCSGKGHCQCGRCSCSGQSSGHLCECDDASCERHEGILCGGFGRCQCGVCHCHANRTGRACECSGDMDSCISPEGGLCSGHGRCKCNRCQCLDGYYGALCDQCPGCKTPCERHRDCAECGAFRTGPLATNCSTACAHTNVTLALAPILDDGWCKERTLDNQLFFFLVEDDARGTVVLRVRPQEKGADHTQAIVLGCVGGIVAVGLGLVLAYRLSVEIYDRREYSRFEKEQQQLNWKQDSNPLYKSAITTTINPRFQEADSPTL
T3 sequence (P38570 19-1124 limits assumed, chain 1 of 2): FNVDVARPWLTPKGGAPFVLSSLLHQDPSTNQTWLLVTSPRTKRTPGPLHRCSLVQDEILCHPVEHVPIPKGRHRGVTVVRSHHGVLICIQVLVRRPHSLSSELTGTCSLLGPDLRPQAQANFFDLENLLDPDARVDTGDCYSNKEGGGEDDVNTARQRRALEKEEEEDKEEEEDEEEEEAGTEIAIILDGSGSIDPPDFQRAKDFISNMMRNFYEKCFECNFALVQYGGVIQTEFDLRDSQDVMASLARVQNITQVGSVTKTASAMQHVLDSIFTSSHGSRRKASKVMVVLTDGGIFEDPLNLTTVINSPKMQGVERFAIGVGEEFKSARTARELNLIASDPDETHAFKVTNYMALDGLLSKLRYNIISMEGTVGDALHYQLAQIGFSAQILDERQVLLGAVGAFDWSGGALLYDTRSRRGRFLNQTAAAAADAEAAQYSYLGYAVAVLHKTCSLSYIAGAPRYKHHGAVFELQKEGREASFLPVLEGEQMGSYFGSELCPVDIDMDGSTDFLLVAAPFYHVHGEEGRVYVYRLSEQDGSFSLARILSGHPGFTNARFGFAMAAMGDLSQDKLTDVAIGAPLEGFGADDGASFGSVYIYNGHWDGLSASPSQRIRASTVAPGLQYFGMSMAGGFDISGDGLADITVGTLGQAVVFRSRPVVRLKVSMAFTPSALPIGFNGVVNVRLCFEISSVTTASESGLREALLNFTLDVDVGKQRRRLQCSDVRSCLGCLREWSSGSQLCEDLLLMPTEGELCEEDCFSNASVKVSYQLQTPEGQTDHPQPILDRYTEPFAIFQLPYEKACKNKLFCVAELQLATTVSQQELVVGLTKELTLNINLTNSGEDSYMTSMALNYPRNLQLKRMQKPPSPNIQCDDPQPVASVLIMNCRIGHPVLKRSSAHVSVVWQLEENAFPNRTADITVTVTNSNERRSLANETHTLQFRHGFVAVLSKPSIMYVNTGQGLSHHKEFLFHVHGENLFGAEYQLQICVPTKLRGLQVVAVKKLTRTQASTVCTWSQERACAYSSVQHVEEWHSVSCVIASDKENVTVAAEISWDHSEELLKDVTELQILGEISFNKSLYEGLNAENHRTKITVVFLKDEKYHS
T3 sequence (P26010 20-723 limits assumed, chain 2 of 2): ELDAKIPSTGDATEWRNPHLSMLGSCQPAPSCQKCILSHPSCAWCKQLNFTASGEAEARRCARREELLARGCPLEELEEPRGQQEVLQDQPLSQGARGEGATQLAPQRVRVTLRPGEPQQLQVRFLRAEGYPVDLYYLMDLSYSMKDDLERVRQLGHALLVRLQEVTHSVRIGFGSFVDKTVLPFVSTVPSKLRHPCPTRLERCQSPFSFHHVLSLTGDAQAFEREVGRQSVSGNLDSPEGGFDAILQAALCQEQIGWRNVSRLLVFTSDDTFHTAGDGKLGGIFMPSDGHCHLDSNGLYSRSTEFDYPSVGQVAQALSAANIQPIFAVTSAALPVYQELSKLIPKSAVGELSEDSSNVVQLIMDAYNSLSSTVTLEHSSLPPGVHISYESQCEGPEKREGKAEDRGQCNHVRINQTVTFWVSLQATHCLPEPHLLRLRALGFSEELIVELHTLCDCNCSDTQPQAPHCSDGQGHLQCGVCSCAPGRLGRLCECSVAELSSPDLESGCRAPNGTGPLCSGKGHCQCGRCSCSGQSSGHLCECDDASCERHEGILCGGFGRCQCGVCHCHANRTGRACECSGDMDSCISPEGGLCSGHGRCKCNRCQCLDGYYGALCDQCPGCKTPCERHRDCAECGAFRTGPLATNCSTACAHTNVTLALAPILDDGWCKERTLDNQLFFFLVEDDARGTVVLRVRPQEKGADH

Binder | % binding of the fluorescently labeled mAb (IgG pre-incubation = 100) [1] [%] | % binding of the fluorescently labeled mAb (IgG pre-incubation = 100) [2] [%] | binding result (murine CD103) | EC50 (read off the curve) [3] [µg/mL] | EC50 (read off the curve) [4] [µg/mL] | EC50 (read off the curve) [5] [µg/mL] | EC50 (read off the curve) [6] [µg/mL]
hCD103.07A (antibody, mouse IgG1, V domains shown, also called clone 07A) VH: EVQLQESGPSLVKPSQTLSLTCSVTGDSITSGYWNWIRKFPGNKLEYMGYITYSGSTYYNPSLKSRISITRDTSKNQYYLQLNSVTTEDTATYYCARNYYGSSSMDYWGQGTSVTVSS VL: DIVMTQSQKFMSTSVADRVSVTCKASQNVGSDVAWYQQKPGQSPKSLIYSASYRYSGVPDRFTGSGSGTDFTLTISNVQSEDLAEYFCQQYNSYPSTFGGGTKLEIK | 0.7 | 100 | no binding |  |  |  | 
hCD103.01A (antibody, V domains shown, Also tested labelled with AF647, conjugated with Df and labelled with 89Zr; these are written under this molecule; also called clone 01A; hCD103.01 mAb) VH: EVQLQESGPSLVKPSQTLSLTCSVTGDSITSGYWNWIRKFPGNKLEYMGYITYSGSTYYNPSLKSRISITRDTSKNQYYLQLNSVTTEDTATYYCTRHYYGSDAMDYWGQGTSVTVSS VL: DIVMTQSHKFMSTSVGDRVSITCKASQDVSIAVAWYQQRPGQSPKLLIYSASYRYTGVPDRFTGSGSGTDFTFTISSVQAEDLAVYYCQQHYSTPWTFGGGTKLEIK | 2.2 | 100 | no binding | ~0.04 | ~0.003 | ~0.04 | 

The next lines start with the values.

% binding of the fluorescently labeled mAb (IgG pre-incubation = 100) [1] [%] | % binding of the fluorescently labeled mAb (IgG pre-incubation = 100) [2] [%] | binding result (murine CD103) | EC50 (read off the curve) [3] [µg/mL] | EC50 (read off the curve) [4] [µg/mL] | EC50 (read off the curve) [5] [µg/mL] | EC50 (read off the curve) [6] [µg/mL] | Binder
2.2 | 100 | no binding | ~0.04 | ~0.003 | ~0.04 | ~0.4 | hCD103.05A (antibody, mouse IgG1, V domains shown, Also tested labelled with AF647, conjugated with Df and labelled with 89Zr; these are written under this molecule; also called clone 05A; hCD103.05 mAb) VH: EVQLQQSGPELEKPGASAKISCKASGYSFTGYNMNWVKQSNGKSLEWIGNIDPYYGGTSYNQKFKGKATLTVDKSSSTAYMQLKSLTSEDSAVYYCARSFYGYDAGSPYNYAMDYWGQGTPVTVSP VL: DIVMTQSHKFMSTSVGDRVSITCKASQDVGTFVAWYQQKPGQSPKLLIYWASTRHTGVPDRFTGSGSGTDFTLTISNVQSEDLADYFCHQYSSYPYTFGGGTQLEIK
99.1 | 100 | no binding |  |  |  |  | hCD103.06A (antibody, mouse IgG1, V domains shown, also called clone 06A; hCD103.06 mAb) VH: QVQLQQPGSELVRPGASVKLSCKASGYTFTSYWMHWVKQRHGQGLEWIGNIYPGSGSTNYDEKFKSKGTLTVDTSSSTAYMHLSSLTSEDSAVYYCTRGVYDNPYYFDYWGQGTTLTVSS VL: DIQMTQSSSNLSVSLGGRVTITCKASDHINNWLAWYQQKPGNAPRVLISGATSLETGVPSRFSGSGSGKDYTLSITSLQTEDVATYYCQQYWSIPLTFGAGTKLELK
